Reference: US20030087819

Target: T1, synthetic apoA-IMilano peptide 167-R173C-184
T1 chain: SDELRQCLAARLEALKEN

B1: recombinant human LCAT enzyme (Lecithin:Cholesterol Acyltransferase) (protein)
chain: FWLLNVLFPPHTTPKAELSNHTRPVILVPGCLGNQLEAKLDKPDVVNWMCYRKTEDFFTIWLDLNMFLPLGVDCWIDNTRVVYNRSSGLVSNAPGVQIRVPGFGKTYSVEYLDSSKLAGYLHTLVQNLVNNGYVRDETVRAAPYDWRLEPGQQEEYYRKLAGLVEEMHAAYGKPVFLIGHSLGCLHLLYFLLRQPQAWKDRFIDGFISLGAPWGGSIKPMLVLASGDNQGIPIMSSIKLKEEQRITTTSPWMFPSRMAWPEDHVFISTPSFNYTGRDFQRFFADLHFEEGWYMWLQSRDLLAGLPAPGVEVYCLYGVGLPTPRTYIYDHGFPYTDPVGVLYEDGDDTVATRSTELCGLWQGRQPQPVHLLPLHGIQHLNMVFSNLTLEHINAILLGAYRQGPPASPTASPEPPPPE
- LCAT activation (esterification of [14C]cholesterol on a proteoliposome substrate), as a percentage of activation obtained with apoA-IWT: failed in this regard
